From patent US20220040319A1 (Regeneron, published 2022)

B1: H4H13299P2 (antibody, human IgG4, V domains shown)
VH: EVQLVESGGGLVQPGGSLRLSCAASGFIFSNYEMNWVRQAPGKGLEWISYITSSGNMKYYADSVKGRFTISRDNDKNSLYLQMSSLRVEDTAVYYCVRGGRFLEWLTYYVMVVWGQGTTVTVSS
VL: not shown
B2: H4H13331P2 (antibody, human IgG4, V domains shown)
VH: QVQLQESGPGLVKSSETLSLTCTVSGGSIRNFYWSWLRQPPGKGLEWIGHINYNGGTDYNPSLKSRVTISVDTSKNQFSLNLNSVTAADTAVYYCARQRFYGMDVWGPGTTVTVSS
VL: not shown
B3: H4H14638D (bispecific antibody, human IgG4, V domains shown)
VH 1: QVQLVESGGGVVQPGRSLRLSCAASGFTFSNFGMHWVRQAPGKGLEWVAGIWFDGSNKNYIDSVKGRFTISRDNSKNTLYLQMNSLRAEDTAVYYCAREGYDSGTDYIPYDIFDIWGQGTMVTVSS
VH 2: EVQLVESGGGLVQPGGSLRLSCAASGFIVTTNYMTWLRQAPGKGLEWVSLIYSSGHTYYADSVKGRFTISRHNSKNTLYLQMDSLRAEDTAVYYCASAFAADVFDIWGQGTMVTVSS
VL: not shown
B4: H4H14636D (bispecific antibody, human IgG4, V domains shown)
VH 1: B1 VH
VH 2: B3 VH 2
VL: not shown
notes: MET x MET bispecific, expressed as human IgG4; also called bispecific antibody No. 74
B5: H4H16446D (bispecific antibody, human IgG4, V domains shown)
VH 1: QVQLVESGGGVVQPGRSLRLSCAVSGFTFSSYGMHWVRQAPGKGLEWVANIWYDGTNDYYPYSVKGRFTISRDNSQNTLYLQMNSLRAEDTAVYYCAREDFINYRSFDYWGQGTLVTVSS
VH 2: B3 VH 2
VL: not shown
notes: MET x MET bispecific, expressed as human IgG4; also called bispecific antibody No. 58
B6: H4H14634D (bispecific antibody, human IgG4, V domains shown)
VH 1: QVQLQESGPGLVKPSETLSLTCTVSGDSISSYYWTWIRQPPGKGLEWIGYIFYRGGTTYNPSLKSRVTISVDTSKNQFSLKLRSVTAADTAVYYCARGDDLLVVTSVYWYIDLWGRGTLVTVSS
VH 2: B3 VH 2
VL: not shown
notes: MET x MET bispecific, expressed as human IgG4; also called bispecific antibody No. 10
B7: H4H14635D (bispecific antibody, human IgG4, V domains shown)
VH 1: QVQLVESGGGVVQPGRSLRVSCVVSGFTFSSFGMHWVRQAPDKGLEWVAVIWYDGSNDYYSDSVKGRFTISRDNSKNTLFLQMNRLRAEDTAVYYCARANNWNRFDAFDLWGQGTMVTVSS
VH 2: B3 VH 2
VL: not shown
notes: MET x MET bispecific, expressed as human IgG4; also called bispecific antibody No. 42
B8: H4H14637D (bispecific antibody, human IgG4, V domains shown)
VH 1: QVQLVESGGGVVQPGTSLRLSCVASGFTFRNFGMHWVRQAPGKGLEWVANIWFDGSNENYVESIQGRFTISRDNSKNTLNLQMNSLRAEDSAVYYCVREGILGTTNPYDAFDVWGQGTMVTVSS
VH 2: B3 VH 2
VL: not shown
B9: H4H14634D (bispecific antibody, human IgG4, V domains shown)
VH 1: B6 VH 1
VH 2: B3 VH 2
VL: not shown
B10: H4H14641D (bispecific antibody, human IgG4, V domains shown)
VH 1: QVQLVESGGGVVQPGRSLRLSCSASGFSFSHFGMHWVRQVPGGGLEWVTSIWFDGSNRYYADSLKGRFTISRDNSKNTLYLEMNSLRAEDTAVYYCVREGILGTTNPYDVFDVWGQGTMVTVSS
VH 2: B3 VH 2
VL: not shown
B11: H4H16448D (bispecific antibody, human IgG4, V domains shown)
VH 1: QVQLVESGGGVVQPGRSLRLSCVASGFSFSNFGMHWVRQAPGKGLEWVAIIWYDGSNKYYSDSVKGRFTISRDNSKNTLYLQMNSLRVDDTAVYYCARFDRWKFDAFDIWGQGTMVTVSS
VH 2: B3 VH 2
VL: not shown
notes: MET x MET bispecific, expressed as human IgG4; also called bispecific antibody No. 219
B12: H4H14641D (bispecific antibody, human IgG4, V domains shown)
VH 1: B10 VH 1
VH 2: B3 VH 2
VL: not shown
notes: MET x MET bispecific, expressed as human IgG4
B13: H4H13312P2 (antibody, human IgG4, V domains shown)
VH: B3 VH 2
VL: not shown
B14: H4H14638D (bispecific antibody, human IgG4, V domains shown)
VH 1: B3 VH 1
VH 2: B3 VH 2
VL: not shown
notes: as for B12
B15: H4H14640D (bispecific antibody, human IgG4, V domains shown)
VH 1: QVQLVQSGTEVKEPGASVKVSCKASGYSFTTYGISWLRQAPGQGLEWMGWISTYNGDTISAQMLQDRVTLTADTSTRTAYMELRSLRSDDTAVYYCARGHEYDSLVYSYWGQGTLVTVSS
VH 2: B3 VH 2
VL: not shown
notes: MET x MET bispecific, expressed as human IgG4; also called bispecific antibody No. 138
B16: H4H16447D (bispecific antibody, human IgG4, V domains shown)
VH 1: QVQLVESGGGVVQPGRSLRLSCAASGFTFSSYAMHWVRQAPGRGLEWVAVIWHDGDVEYYVDSVKDRFTISRDNSKSTLYLQMNSLRAEDTALYYCAREAWDLLRPFDYWGQGTLVTVSS
VH 2: B3 VH 2
VL: not shown
notes: MET x MET bispecific, expressed as human IgG4; also called bispecific antibody No. 154
B17: H4H16449D (bispecific antibody, human IgG4, V domains shown)
VH 1: QVQLVESGGGVVQPGRSLRLSCAASGFTFSSFAMHWVRQAPGKGLEWVAVIWYDGSNDYYAASVKGRFTISRDNSKNTLYLEMNRLRAEDTAVYHCARDNWNYWGGMDVWGQGTTVTVSS
VH 2: B3 VH 2
VL: not shown
notes: as for B12
B18: H4H14637D (bispecific antibody, human IgG4, V domains shown)
VH 1: B8 VH 1
VH 2: B3 VH 2
VL: not shown
notes: MET x MET bispecific, expressed as human IgG4; also called bispecific antibody No. 90
B19: H4H14640D (bispecific antibody, human IgG4, V domains shown)
VH 1: B15 VH 1
VH 2: B3 VH 2
VL: not shown
B20: H4H14636D (bispecific antibody, human IgG4, V domains shown)
VH 1: B1 VH
VH 2: B3 VH 2
VL: not shown
B21: H4H16445D (bispecific antibody, human IgG4, V domains shown)
VH 1: QVQLVESGGGVVQPGGSLRLSCAASGFTFSGYGMHWVRQAPGKGLEWMAVIWYDGSNDYYPDSVKGRFTISRDNSKNTLYLQMNSLRVEDTAVYYCARDAWDLLRSFDYWGQGTLVTVSS
VH 2: B3 VH 2
VL: not shown
notes: MET x MET bispecific, expressed as human IgG4; also called bispecific antibody No. 26

How the values were obtained:
human MET on cells [1] = target: T1, human MET on cells (human, UniProt P08581 25-1390); experiment: cell-based or functional assay
human MET on cells [2] = target: T1, human MET on cells; experiment: cell-based or functional assay; remark: listed apart in the source
human MET on cells [3] = target: T1, human MET on cells; experiment: cell-based or functional assay; remark: listed apart in the source
[4] = target: T2, hMet.mmh (human MET extracellular domain with C-terminal myc-myc-hexahistidine tag) (human, UniProt P08581 309-914; P08581 27-307); experiment: SPR 37C, antibody captured
T2 construct: soluble monomeric MET; also called monomeric human MET
Protocol: Kinetic association (kₐ) and dissociation (kd) rate constants were determined as described in Example 3.

human MET on cells [5] = target: T1, human MET on cells; experiment: cell-based or functional assay; remark: listed apart in the source
Wherever % Inhibition, HEK293/SRE-Luc Blocking Activity (HGF, 1 h mAb pre-bind) is given: test concentration or dose not given here.

T1 sequence (P08581 25-1390 limits assumed, form in doubt): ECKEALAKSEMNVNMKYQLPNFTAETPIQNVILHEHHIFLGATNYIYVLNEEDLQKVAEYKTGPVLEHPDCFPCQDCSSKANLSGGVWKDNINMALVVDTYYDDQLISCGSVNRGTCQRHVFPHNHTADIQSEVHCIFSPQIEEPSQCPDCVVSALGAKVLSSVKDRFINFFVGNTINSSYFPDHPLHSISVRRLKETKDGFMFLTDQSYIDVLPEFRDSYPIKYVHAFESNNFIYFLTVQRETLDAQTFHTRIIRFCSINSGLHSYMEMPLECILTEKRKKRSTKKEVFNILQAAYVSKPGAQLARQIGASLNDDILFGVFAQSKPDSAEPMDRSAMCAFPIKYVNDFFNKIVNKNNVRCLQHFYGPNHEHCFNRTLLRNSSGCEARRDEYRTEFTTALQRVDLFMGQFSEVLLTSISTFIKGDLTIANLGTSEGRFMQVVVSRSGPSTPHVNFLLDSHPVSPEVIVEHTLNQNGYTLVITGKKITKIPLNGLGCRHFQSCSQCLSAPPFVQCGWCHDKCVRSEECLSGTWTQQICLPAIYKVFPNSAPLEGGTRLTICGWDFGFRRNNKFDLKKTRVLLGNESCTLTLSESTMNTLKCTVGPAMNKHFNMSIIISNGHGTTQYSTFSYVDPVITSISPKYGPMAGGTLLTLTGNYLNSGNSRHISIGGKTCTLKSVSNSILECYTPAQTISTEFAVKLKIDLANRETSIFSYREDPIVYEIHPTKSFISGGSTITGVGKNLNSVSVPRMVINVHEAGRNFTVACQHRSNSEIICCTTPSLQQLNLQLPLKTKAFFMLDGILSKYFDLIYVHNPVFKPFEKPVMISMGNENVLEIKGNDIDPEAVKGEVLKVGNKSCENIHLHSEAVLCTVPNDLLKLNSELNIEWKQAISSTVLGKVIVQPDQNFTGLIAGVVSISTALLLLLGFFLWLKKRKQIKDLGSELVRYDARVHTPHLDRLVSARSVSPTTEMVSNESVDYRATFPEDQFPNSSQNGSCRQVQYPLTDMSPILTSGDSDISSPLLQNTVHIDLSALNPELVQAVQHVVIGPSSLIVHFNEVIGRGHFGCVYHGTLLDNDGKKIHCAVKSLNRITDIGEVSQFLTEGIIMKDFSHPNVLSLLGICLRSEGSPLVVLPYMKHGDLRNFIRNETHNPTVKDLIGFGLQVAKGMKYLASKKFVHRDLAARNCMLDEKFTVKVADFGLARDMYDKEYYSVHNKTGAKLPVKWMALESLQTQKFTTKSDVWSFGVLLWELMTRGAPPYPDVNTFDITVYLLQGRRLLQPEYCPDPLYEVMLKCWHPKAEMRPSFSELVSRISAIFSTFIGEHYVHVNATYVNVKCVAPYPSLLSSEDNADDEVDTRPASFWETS
T2 sequence (P08581 other isoform, or with tags, fused parts or gaps limits assumed, chain 1 of 2): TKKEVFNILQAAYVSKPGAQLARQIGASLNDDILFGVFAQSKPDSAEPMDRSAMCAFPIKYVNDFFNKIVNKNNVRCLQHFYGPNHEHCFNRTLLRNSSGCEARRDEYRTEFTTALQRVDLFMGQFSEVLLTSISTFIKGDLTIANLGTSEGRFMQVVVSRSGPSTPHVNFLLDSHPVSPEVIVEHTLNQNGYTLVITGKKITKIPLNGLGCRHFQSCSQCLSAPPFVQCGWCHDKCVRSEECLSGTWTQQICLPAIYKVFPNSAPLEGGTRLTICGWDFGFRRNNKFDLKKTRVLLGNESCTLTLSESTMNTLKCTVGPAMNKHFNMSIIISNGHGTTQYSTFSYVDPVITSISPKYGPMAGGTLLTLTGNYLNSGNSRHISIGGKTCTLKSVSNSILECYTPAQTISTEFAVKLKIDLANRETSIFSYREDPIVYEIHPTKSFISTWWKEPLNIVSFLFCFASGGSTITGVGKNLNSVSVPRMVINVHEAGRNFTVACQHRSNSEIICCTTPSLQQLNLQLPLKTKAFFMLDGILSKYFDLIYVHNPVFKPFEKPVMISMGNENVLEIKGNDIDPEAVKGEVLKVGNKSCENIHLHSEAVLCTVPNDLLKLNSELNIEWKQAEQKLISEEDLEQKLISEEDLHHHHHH
T2 sequence (P08581 27-307 limits assumed, chain 2 of 2): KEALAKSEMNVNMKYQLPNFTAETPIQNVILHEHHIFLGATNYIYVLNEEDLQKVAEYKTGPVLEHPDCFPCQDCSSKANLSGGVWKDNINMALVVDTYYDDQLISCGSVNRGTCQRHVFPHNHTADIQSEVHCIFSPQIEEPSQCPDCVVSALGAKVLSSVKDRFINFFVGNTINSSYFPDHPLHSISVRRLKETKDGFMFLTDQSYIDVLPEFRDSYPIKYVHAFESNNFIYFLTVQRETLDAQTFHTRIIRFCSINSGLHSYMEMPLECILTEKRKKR

Row | Binder | % Inhibition, HEK293/SRE-Luc Blocking Activity (HGF, 1 h mAb pre-bind) (human MET on cells [1]) [%] | EC50, Ligand (HGF)-Independent HEK293/SRE-Luc Activation (human MET on cells [1]) [nM] | Fold Response, Ligand (HGF)-Independent HEK293/SRE-Luc Activation (human MET on cells [1]) [fold] | T½ [4] [min] | koff [4] [s⁻¹] | other results
1 | B1 | 51 | 0.0037 | 14.4 | – | – | % Growth Inhibition, SNU5 cells (human MET on cells [2]): -8%
2 | B2 | 75 | 0.0023 | 7.1 | – | – | IC50, HEK293/SRE-Luc Blocking Activity (HGF, 1 h mAb pre-bind) (human MET on cells [1]): < 0.01 nM; % Growth Inhibition, SNU5 cells (human MET on cells [2]): 5%
3 | B3 | 79 | 5.9 | 2.6 | – | – | IC50, HEK293/SRE-Luc Blocking Activity (HGF, 1 h mAb pre-bind) (human MET on cells [1]): 1.1 nM; Relative MET Level, SNU5 cells, 18 hrs (human MET on cells [3]): 0.35 relative to control (hFc)
4 | B4 | – | – | – | ≥ 1160 | ≤ 1e-05 | –
5 | B5 | – | – | – | 112 | 0.000103 | –
6 | B6 | – | – | – | ≥ 1160 | ≤ 1e-05 | –
7 | B7 | – | – | – | 141 | 8.21e-05 | –
8 | B8 | 73 | 4.1 | 2.1 | – | – | Relative MET Level, SNU5 cells, 18 hrs (human MET on cells [3]): 0.49 relative to control (hFc)
9 | B9 | 85 | 0.09 | 3.4 | – | – | IC50, HEK293/SRE-Luc Blocking Activity (HGF, 1 h mAb pre-bind) (human MET on cells [1]): 0.0097 nM; Relative MET Level, SNU5 cells, 18 hrs (human MET on cells [3]): 0.45 relative to control (hFc)
10 | B10 | 75 | 84 | 4.4 | – | – | IC50, HEK293/SRE-Luc Blocking Activity (HGF, 1 h mAb pre-bind) (human MET on cells [1]): 2.7 nM; Relative MET Level, SNU5 cells, 18 hrs (human MET on cells [3]): 0.31 relative to control (hFc)
11 | B11 | – | – | – | 19.5 | 0.000592 | –
12 | B12 | – | – | – | 35.3 | 0.000327 | –
13 | B13 | 48 | 0.12 | – | – | – | % Growth Inhibition, SNU5 cells (human MET on cells [2]): 69%; IC50, SNU5 growth (human MET on cells [2]): 0.78 nM; IC50, 6-day in vitro cytotoxicity, A549 (human MET on cells [5]): > 100 nM; IC50, 6-day in vitro cytotoxicity, EBC-1 (human MET on cells [5]): > 100 nM; IC50, 6-day in vitro cytotoxicity, Hs746t (human MET on cells [5]): > 100 nM; Max % Kill, 6-day in vitro cytotoxicity, A549 (human MET on cells [5]): 7%; Max % Kill, 6-day in vitro cytotoxicity, EBC-1 (human MET on cells [5]): 30%; Max % Kill, 6-day in vitro cytotoxicity, Hs746t (human MET on cells [5]): 0%
14 | B14 | – | – | – | 70.2 | 0.000165 | –
15 | B15 | – | – | – | ≥ 1160 | ≤ 1e-05 | –
16 | B16 | – | – | – | 13.6 | – | –
17 | B17 | – | – | – | 39.3 | 0.000294 | –
18 | B18 | – | – | – | 35.4 | 0.000326 | –
19 | B19 | 89 | 6.8 | 2.5 | – | – | IC50, HEK293/SRE-Luc Blocking Activity (HGF, 1 h mAb pre-bind) (human MET on cells [1]): 0.52 nM; Relative MET Level, SNU5 cells, 18 hrs (human MET on cells [3]): 0.18 relative to control (hFc)
20 | B20 | 74 | 0.28 | 2.8 | – | – | Relative MET Level, SNU5 cells, 18 hrs (human MET on cells [3]): 0.5 relative to control (hFc)
21 | B21 | – | – | – | 29.4 | 0.000393 | –
